Columns and labels:
[1] = tested on: CTSL1_1 FRET substrate (ALFKSSFP)
[2] = tested on: CTSL1_2 8-mer FRET substrate Mca-ALFFSSPPK-Dnp
[3] = tested on: CTSL1_2 9-mer FRET substrate Mca-ALFFSSPPSK-Dnp

Cathepsin L (CTSL1), recombinant human, sequence (chain, as listed by the source): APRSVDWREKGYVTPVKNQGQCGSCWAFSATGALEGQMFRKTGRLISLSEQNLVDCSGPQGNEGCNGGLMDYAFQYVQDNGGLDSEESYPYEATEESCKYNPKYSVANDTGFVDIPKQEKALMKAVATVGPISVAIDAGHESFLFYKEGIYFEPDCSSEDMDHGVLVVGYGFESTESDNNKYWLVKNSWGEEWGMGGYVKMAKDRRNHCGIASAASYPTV

## Cathepsin L (CTSL1), recombinant human
ALU30-10
ALU30-10, sequence (chain, as listed by the source): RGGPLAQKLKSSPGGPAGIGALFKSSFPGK
  30-mer substrate degradation (MSP-MS): The most efficiently cleaved peptides were those containing the FAPa_1, CTSL1_1 and ADAM17_2 motifs, in multiple orders.
ALU30-11
ALU30-11, sequence (chain, as listed by the source): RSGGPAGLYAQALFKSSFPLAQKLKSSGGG
  30-mer substrate degradation (MSP-MS): Peptides bearing the MMP14_1 motif with CTSL1_1 and ADAM17_2 were slightly lower efficiency.
ALU30-12
ALU30-12, sequence (chain, as listed by the source): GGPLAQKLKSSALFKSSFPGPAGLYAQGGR
  30-mer substrate degradation (MSP-MS): Peptides bearing the MMP14_1 motif with CTSL1_1 and ADAM17_2 were slightly lower efficiency.
ALU30-13
ALU30-13, sequence (chain, as listed by the source): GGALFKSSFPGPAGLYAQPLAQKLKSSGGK
  30-mer substrate degradation (MSP-MS): Peptides bearing the MMP14_1 motif with CTSL1_1 and ADAM17_2 were slightly lower efficiency.
ALU30-14
ALU30-14, sequence (chain, as listed by the source): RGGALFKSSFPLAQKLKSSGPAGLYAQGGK
  30-mer substrate degradation (MSP-MS): Peptides bearing the MMP14_1 motif with CTSL1_1 and ADAM17_2 were slightly lower efficiency.
ALU30-15
ALU30-15, sequence (chain, as listed by the source): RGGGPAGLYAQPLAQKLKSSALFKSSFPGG
  30-mer substrate degradation (MSP-MS): Peptides bearing the MMP14_1 motif with CTSL1_1 and ADAM17_2 were slightly lower efficiency.
  cleavage efficiency of 30-mer library peptides: lower CTSL1 activity
ALU30-16
ALU30-16, sequence (chain, as listed by the source): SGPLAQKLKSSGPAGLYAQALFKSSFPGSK
  30-mer substrate degradation (MSP-MS): Peptides bearing the MMP14_1 motif with CTSL1_1 and ADAM17_2 were slightly lower efficiency.
ALU30-17
ALU30-17, sequence (chain, as listed by the source): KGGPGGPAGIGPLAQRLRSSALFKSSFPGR
  30-mer substrate degradation (MSP-MS): CTSL1 treatment of the 30-mer peptide library produced cleavages in all peptides bearing a CTSL1_1 or CTSL1_2 motif
ALU30-18
ALU30-18, sequence (chain, as listed by the source): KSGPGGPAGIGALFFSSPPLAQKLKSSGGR
  30-mer cleavage (substrate disappearance and product formation): Both peptides showed rapid disappearance of substrate (squares) and product formation from cleavage at the target scissile bond
  30-mer substrate degradation (MSP-MS): CTSL1 treatment of the 30-mer peptide library produced cleavages in all peptides bearing a CTSL1_1 or CTSL1_2 motif
ALU30-1
ALU30-1, sequence (chain, as listed by the source): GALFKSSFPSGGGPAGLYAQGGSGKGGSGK
  30-mer substrate degradation (MSP-MS): CTSL1 treatment of the 30-mer peptide library produced cleavages in all peptides bearing a CTSL1_1 or CTSL1_2 motif
ALU30-5
ALU30-5, sequence (chain, as listed by the source): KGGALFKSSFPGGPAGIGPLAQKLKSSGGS
  30-mer substrate degradation (MSP-MS): The most efficiently cleaved peptides were those containing the FAPa_1, CTSL1_1 and ADAM17_2 motifs, in multiple orders.
ALU30-6
ALU30-6, sequence (chain, as listed by the source): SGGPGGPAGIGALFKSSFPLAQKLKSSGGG
  30-mer cleavage (substrate disappearance and product formation): Both peptides showed rapid disappearance of substrate (squares) and product formation from cleavage at the target scissile bond
  30-mer substrate degradation (MSP-MS): The most efficiently cleaved peptides were those containing the FAPa_1, CTSL1_1 and ADAM17_2 motifs, in multiple orders.
ALU30-7
ALU30-7, sequence (chain, as listed by the source): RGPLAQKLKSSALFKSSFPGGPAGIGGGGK
  30-mer substrate degradation (MSP-MS): The most efficiently cleaved peptides were those containing the FAPa_1, CTSL1_1 and ADAM17_2 motifs, in multiple orders.
ALU30-8
ALU30-8, sequence (chain, as listed by the source): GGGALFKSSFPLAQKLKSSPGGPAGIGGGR
  30-mer substrate degradation (MSP-MS): The most efficiently cleaved peptides were those containing the FAPa_1, CTSL1_1 and ADAM17_2 motifs, in multiple orders.
ALU30-9
ALU30-9, sequence (chain, as listed by the source): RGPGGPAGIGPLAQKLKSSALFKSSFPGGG
  30-mer substrate degradation (MSP-MS): The most efficiently cleaved peptides were those containing the FAPa_1, CTSL1_1 and ADAM17_2 motifs, in multiple orders.
[1]
  FRET substrate cleavage: CTSL1 cleaves the FRET substrate bearing the CTSL1_1 motif highly efficiently
[2]
  FRET substrate cleavage: the new CTSL1_2 motif was not cleaved in the context of an 8-mer FRET peptide
[3]
  FRET substrate cleavage, catalytic efficiency: This 9-mer FRET substrate bearing the CTSL1_2 motif produced comparable catalytic efficiency to the CTSL1_1 motif

Source: patent US20210115102
